This note sets out measurements from publication PMC2883962.

The target of the experiment is prostate apoptosis response protein 4 (Par-4), endogenous in native colon cancer cells (human (endogenous in HT29 and SW480)) (UniProt Q96IZ0). As to the kind of experiment: co-IP; Par-4 immunoprecipitated from lysates of native HT29 cells treated for 24 h with vehicle or 12.5 or 25 μM ISC-4 (AKT inhibitor); immunoprecipitates immunoblotted with PKA, NFκB p50 and 14-3-3 antibodies. In general terms: A western blot detects proteins with antibodies after separation by electrophoresis.
Chain of UniProt Q96IZ0 (Q96IZ0 whole entry): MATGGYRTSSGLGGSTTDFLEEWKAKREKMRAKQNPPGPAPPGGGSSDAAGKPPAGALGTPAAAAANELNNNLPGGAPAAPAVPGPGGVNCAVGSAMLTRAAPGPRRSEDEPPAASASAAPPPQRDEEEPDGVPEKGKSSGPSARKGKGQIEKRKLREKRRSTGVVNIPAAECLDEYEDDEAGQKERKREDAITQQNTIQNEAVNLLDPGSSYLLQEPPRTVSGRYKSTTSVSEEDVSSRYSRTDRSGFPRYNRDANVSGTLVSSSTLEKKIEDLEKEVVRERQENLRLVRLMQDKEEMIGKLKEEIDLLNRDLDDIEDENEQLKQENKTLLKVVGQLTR

Chain of 14-3-3 (P63104 whole entry): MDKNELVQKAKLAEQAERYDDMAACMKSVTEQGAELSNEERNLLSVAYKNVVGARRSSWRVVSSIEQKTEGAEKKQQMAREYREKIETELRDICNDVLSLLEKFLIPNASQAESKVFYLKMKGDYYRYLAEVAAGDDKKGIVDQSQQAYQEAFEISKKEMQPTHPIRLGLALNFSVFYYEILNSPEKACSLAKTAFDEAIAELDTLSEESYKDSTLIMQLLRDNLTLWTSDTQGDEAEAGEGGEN

Regarding “14-3-3 (from UniProt P63104 1-245) (natural protein)”, the fold decrease of Par-4 binding with ISC-4 against vehicle is 3 fold.
